Our source for the ratio to parent values is paper PMC6488192 (2019).

Sequences and labels used below:
B1: RNA Editing Helicase 2 (REH2) wild type with TAP tag [T. brucei] / REH2-Associated Factor 1 (^H2F1), endogenous [T. brucei (endogenous in Lister 427 29-13 procyclic cells)] (parent complex)
chain 1: FQTQEITPGEVSLVEATDESDRAFGETRKEDFSFDGSSEFPECFKDTKHVDTFSRARVVSFIKRFSQGAVTSSSEVFEGREIVNDNGTPLYHSRVRLPFRSHTGELWAHGVACNSKDAELLAAMHAEHIIDEFGYHIYTLPSMQRKHAEAARKAGRWAPLPDELERTQSPVRVPLPLRRIVDRDETEGGKWLLIDMRPNHYISPSHTLLSPCLFDTTAVHRIKSFLDEHKLSFAQLCTSVEEPGEGGGQSWYVATVSLPPELSTFSEIKAQGKALNREAAVTLACMHAELVLDAHSICLYPSDSTKQKQHALAAWSYGRPAPLPGEDQKNPSHVVCPLPLKQLAVRREDRISCISYEEDIIRRHRALTDQTCEFIETPTLDSSAVEQLKQFLQRENVPRTDPFLVEEVNGYYKATVVLPLPDLYGIRGGVGIAMNATDARVLAAMHAIDVLNILGFHLMDGSTARAEWIAARRARGESVPADTRDPNVLSPSGRRRVATGNSSTQTPSSSTNARSVAAAPDVGTSDPTAPQNTKRRVAKRARVADAQPTEEKDAANSDSDEATSYLKMRETVSKELWNLEPDSPDGYIMVSPTDPETRTQFEQALYSPRQVDLGSKSRIKNYLASVGRRIEEVFFVQRIEAEDNGGQAICRCAVNLPVPRRFGDRIALGEAVDPKDAENLAAMHAELILDTLGIPIYTDSALQRLHVRLCAKCGRNAPVEYSESVAAATASPPPLRREVVGSIHWENKSKRRRAAISVQKGGGPANSQETTSALREDEEPLIAPKERREYTFVPEKDLDLVSRARVHYYLRRNGIAKLEPEYRMELRGLGNVLHIAELTLPLPDVYGKRVAHGSALTKRDAEILCWMHAEQILDAVGLCLFDNLPMLQRRHVECVKRLGRWAPLVSENATKPPHTPTPLPLTLGTTQEKPQYPTPPTNVRQDWEQYAQECQRYIEINVMREHNIFYEMGKTPRTGDETYDAALAEVESMPIDPDAKTVLQRYCNVANVNYPTFWKSRTVGPISCRVCLTTIEVPGHEYLRASGVAWNKEASQRQAAMHALALLRRVEPDFAEFEKQIKAEVVDKVNLVDPAAVLDEEAPVLRRTARVSKKSLGNWDPVSKDFSHEGKVRIIELFTVCFGLQPPLVRHLNRRSGSFVQHFTVVEVTDEDGKTWVGTGRDAGPRFNEPAAFDDLFSKLSRGVQGFQALMDLIRAHPHLDPEHIANVSLTDSQKERILKAVDGLPMVEEEDVAHPEQWADADSDRGIGIMALIAMDASQRAQESQELEAKLQAKLTNEEYQTRYASQRQRLRIYEKRDEILRAISSNQIVIICGTTGCGKTTQVPQYILDDMTEKGMGGDCSIVITQPRRLSAVSIARRVAAERLESIGETCGYSIRLDAKPGRNINFCTSGVLLRLLHSAPLLNGINYLIIDEIHERDINSDFLLILLRQLLHRRKDLHVILMSATLQADQFGKYFGNAPIINVEGYVHAVEEMYLEDLVPIATERNVMTPLLKEAAAALERNGAADGFCPTVVPPTAKYGFLEATADIDYMTIQIAIDHAVRSLDLTDSSILVFLPGWDEINRAKEILERNAKFHIICLHSSVGAEEQMRCFLPAPEGKIKLILSTNIAESGVTIDDVAAVIDVGRGKEKSYVMRKGTTSVGRNEMGSMSQLVTVYASRANCVQRRGRVGRTRPGMCIRLYSKKHFQSLHDFQTPEMLRTHLDSLCLQILALDLGDPADFLQQALEPPSSDHIEAAMKRLHELGATTSTRQLTPLGLRLSRLPVAPKVGKMVIMGAILRCLDSALTIAGVSDTDVFISTREHREAVRLHKEDLSYGTQSDVIASVNAFNFWVTSHYAKTPAEVVYDLQERMLSVPQLLTVSKYKQQFFEIVAGSGFIHMKQNYKDAKNKDRADIFVDQSEYSADSLNVGLVKCVVASGLFPNVVMNRGKRLMRNKLANRLDPSSASVVHRTSQENIGQPYFVYDELVKSSESERLLVRDLTNVSLWTILLMGTSSMPVTYRDDLNLAVVDEWIMFRATFGTLELIRKFKRALNVCLGRKFMNPNDEENNAKLEELRCIIKELVCTPFKPNDLAEKPWEEKGVIIEPCTEPKGGSSEAEKTHVNSSHTPTTSAEAGGDS
chain 2: CHHPLRIPSVQLAAPRSHTHEDIAYASCPACSRVVHMCDMLTHLITAHRELDQTHCRKMCTERLALYERVIGVPLKKSELTSSGRRVLDFLPTVLPTGYMCNWCDRRSDVYATRDKFLKHVADVHTDIDLEEVEPHVPLPPRGVVVEKSNGDGGPQPTRRLNGVVAVAEKSEPINAVPRILGISLPRGVDRPLKATAQFSDTEFPCELCNRTFNSEIDLLQHLETRHPDGTAEGPAGVDSAAIADVAQFSAKEATTGGDQRVHVICDLCVSSSKVYKMPSALFSHIRFKHPNEDAAFHVERLIREQKTVSSFVCTVCQKAFASAAALDGHFNSKHAEQGEAQNVVGRVTANNCWWCHDCEKGFSSAKGLHGHMQNKHGLSSQTHPCPACKRVFADIYSLEEHLSLQHKTIRLSDIGLLTHVKCSTCERFFLSHEDLHRHAVKHHKKDPRAPAQPFEAPTSASHVAASTSAAVPSEVEATASPQGPRKVKKRKKTTEVSEVTS

Variants of B1 are the subject of this assay. The experiment in a line: IgG pulldown of TAP-tagged REH2, western blot quantification; parent: 1; read off a plot.
As to chain 1 R1993A, the ratio to parent was about 0.92.
chain 1 R1949A: the ratio to parent was about 1.1.
In the case of chain 1 H1968E, the ratio to parent is about 0.97.
chain 1 K1048A, chain 1 A1056D: the ratio to parent is about 1.
